# Bridge positions count the residues as written; N and C are the ends. Square brackets hold non-standard residues; d marks the D form. Peptide text beside a SMILES is read from it. * marks the point of attachment. NOTA = O=C(O)CN1CCN(CC(=O)O)CCN(CC(=O)*)CC1; 2Nal = N[C@@H](Cc1ccc2ccccc2c1)C(=O)O; Pen = CC(C)(S)[C@H](N)C(=O)O; 4Amb = NCc1ccc(C(=O)O)cc1; Ahx = NCCCCCC(=O)O
# Type: in vitro ADME, human
# Experimental: The in vitro and in vivo stability of [^18F]AlF-NOTA-QHY-04 were evaluated by radio-HPLC to examine the RCP after different incubation periods. The binding affinity of the unlabeled precursor to CXCR4 was measured using the biolayer interferometry Octet Red96 system (PALL ForteBio, USA). The details are supplied in the supplemental materials.
# Synthesis of [18F]AlF-NOTA-QHY-04
# Briefly, NOTA-QHY-04 was radiolabeled with [18F]F-, following procedures. 10-20 […]
# GBq [18F]F− produced by medical cyclotron (MINITRACE Cyclotron, GE, USA) was […]
# captured with a QMA SepPak light cartridge (Waters Corporation, USA) and then eluted […]
# with 300-500 μL saline (0.9% NaCl). Then, the saline containing [18F]F− was added to […]
# The partition coefficient (logD) of [18F]AlF-NOTA-QHY-04 was determined in a […]
# from each phase were measured for radioactivity using a γ-counter. […]
# repeated three times to ensure the accuracy of the results. The logD was calculated by […]
# dividing the average radioactivity in the 1 -octanol layer by that in the PBS layer, and the […]
# human serum albumin solution were evaluated by radio-HPLC to examine the radiochemical purity after different incubation periods. For the saline study, 200 μL of [18F]AlF-NOTA-QHY-04 (0.74–3.70 MBq) was incubated at 37°C with 800 μL of saline for 1 h, 3 h and 6 h respectively, and then directly evaluated by radio -HPLC. […]
compound,measurement,value
C[C@H](NC(=O)[C@H](CCCNC(=N)N)NC(=O)CCCCCNC(=O)c1ccc(CNC(=O)CN2CCN(CC(=O)O)CCN(CC(=O)O)CC2)cc1)C(=O)N[C@@H]1CSSC(C)(C)[C@@H](C(=O)O)NC(=O)[C@H](Cc2c[nH]cn2)NC(=O)[C@H](Cc2ccc3ccccc3c2)NC(=O)[C@H](CCCNC(=N)N)NC1=O [[^18F]AlF-NOTA-QHY-04] ({NOTA-4Amb-Ahx}-RA[dC]R[2Nal]H[Pen]-OH; disulfide 3-7),radiochemical purity after incubation in 5% human serum albumin solution,above 95%
